US5252705

Each substance was assayed against hPTH (1-34) (human) (UniProt P01270).
Parameters: unit not given beside the values

| Substance | IC50: 50% inhibition of cAMP production in cultured mouse osteoblast MC3T3-E1 cells |
| --- | --- |
| Compound 1 (Ser-Glu-Ile-Gln-Leu-Met-His-Asn-Leu-Gly-Lys-Ser-Ile-Gln-Asp-Leu-Arg-Arg-Arg-Phe-Phe-Leu-His-His-Leu-Ile-Ala-Glu-Ile-His-Thr-Ala-NH2) (peptide) | 0.007 |
| Compound 3 (Ile-Gln-Leu-Met-His-Asn-Leu-Gly-Lys-Ser-Ile-Gln-Asp-Leu-Arg-Arg-Arg-Phe-Phe-Leu-His-His-Leu-Ile-Ala-Glu-Ile-His-Thr-Ala-NH2) (peptide) | 0.015 |
| [Tyr^34]-hPTH (3-34)-NH2 (from UniProt P01270) (peptide) | 1 |
